# Numbered stars: 1 amine (or outer) side, 2 acyl side, 3 side chain; on linkers, the order of the positions; unused ones are H or OH. Square brackets hold non-standard residues; d marks the D form. Peptide text beside a SMILES is read from it. * marks the point of attachment. DOTA = O=C(O)CN1CCN(CC(=O)O)CCN(CC(=O)*)CCN(CC(=O)O)CC1; Cha = N[C@@H](CC1CCCCC1)C(=O)O; X1 = O=C(CCC(=O)[*:2])CN[*:1]; Nle = CCCC[C@H](N)C(=O)O
# What was measured:
# [1] = format: physicochemical
# Experimental: For lipophilicity determination, each HPLC-purified radiopeptide (~ 20 μL, ∼ 25 μCi) was added into a glass tube containing an equal volume mixture of n-octanol and water (1 mL each). The samples were vigorously vortexed for 5 min and subsequently centrifuged (5000 rpm, 5 min) to yield two immiscible layers. Duplicate samples (100 μL) from each layer were carefully taken (to avoid cross-contamination between the layers) for radioactivity measurement using a γ-counter. Partition coefficient was determined by the function: partition coefficient = Log10 (radioactivity in octanol layer/radioactivity in aqueous layer).
# in vivo = experiment: in vivo; parameters: species or system Balb/c mice; conditions: Balb/c, mouse, iv
# Experimental: Approval for the animal protocol used in this study was obtained from the Institutional Animal Care and Use Committee. Animal studies were conducted according to the international regulations governing the safe and proper use of laboratory animals. In vivo biodistribution were performed on healthy Balb/c mice (n = 3–5 in each group, body weight 19–22 g) at 1 and 2 h after intravenous injection of the HPLC-purified radiopeptide (100 μL, 15–20 μCi, total peptide dose ~ 20 ng) via the lateral tail vein. The mice were sacrificed by cervical dislocation at specified time points and blood samples were withdrawn with a syringe from the heart. Major organs such as lungs, stomach, spleen, pancreas, intestines, liver, kidneys, etc. were isolated, weighed, and radioactivity in each organs and tissues were measured using a γ-scintillation counter. Uptake of radioactivity in the tissues and organs was expressed as the percent injected dose per gram (% ID/g) of tissue/organ, which was calculated by comparison with standard solutions representing 10% of the injected dose per animal. For the clearance studies, radioactivity in the urine with bladder and feces is expressed as the percent of the injected dose per tissue (% ID). Values are expressed as mean ± SD for a group of 3-5 animals at each time point.
smiles,measurement,setting,value
"CCCC[C@H](NC(=O)[C@H](Cc1c[nH]cn1)NC(=O)[C@H](CC1CCCCC1)NC(=O)[C@@H](NC(=O)[C@H](C)NC(=O)[C@H](Cc1c[nH]c2ccccc12)NC(=O)[C@H](CCC(N)=O)NC(=O)[C@H](CS)NC(=O)CNC(=O)CNC(=O)CCC(=O)CNC(=O)CN1CCN(CC(=O)O)CCN(CC(=O)O)CCN(CC(=O)O)CC1)C(C)C)C(=O)N[C@@H](CCSC)C(N)=O [^68Ga-DOTA-ALA-BN Tris-, metal not drawn] ({DOTA}-[X1]GGCQWAV[Cha]H[Nle]M-NH2)",Log P (octanol/water),[1],− 0.88 ± 0.07
same,%ID excreted in Feces,in vivo; 1 h,1.03 ± 0.12 %ID
same,%ID excreted in Urine,in vivo; 1 h,71.0 ± 12.45 %ID
same,Uptake in Blood,in vivo; 1 h,0.88 ± 0.14 %ID/g
same,Uptake in Bone,in vivo; 1 h,0.14 ± 0.03 %ID/g
same,Uptake in Intestines (measured without their contents),in vivo; 1 h,0.85 ± 0.13 %ID/g
same,Uptake in Kidneys,in vivo; 1 h,3.83 ± 0.67 %ID/g
same,Uptake in Liver,in vivo; 1 h,1.78 ± 0.26 %ID/g
same,Uptake in Lungs,in vivo; 1 h,0.42 ± 0.10 %ID/g
same,Uptake in Pancreas,in vivo; 1 h,0.98 ± 0.13 %ID/g
same,Uptake in Spleen,in vivo; 1 h,0.14 ± 0.03 %ID/g
same,Uptake in Stomach,in vivo; 1 h,1.44 ± 0.26 %ID/g
same,%ID excreted in Feces,in vivo; 2 h,0.77 ± 0.10 %ID
same,%ID excreted in Urine,in vivo; 2 h,78.0 ± 15.0 %ID
same,Uptake in Blood,in vivo; 2 h,0.27 ± 0.02 %ID/g
same,Uptake in Bone,in vivo; 2 h,0.08 ± 0.01 %ID/g
same,Uptake in Intestines (measured without their contents),in vivo; 2 h,0.64 ± 0.14 %ID/g
same,Uptake in Kidneys,in vivo; 2 h,2.76 ± 0.49 %ID/g
same,Uptake in Liver,in vivo; 2 h,0.86 ± 0.17 %ID/g
same,Uptake in Lungs,in vivo; 2 h,0.19 ± 0.03 %ID/g
same,Uptake in Pancreas,in vivo; 2 h,0.82 ± 0.12 %ID/g
same,Uptake in Spleen,in vivo; 2 h,0.10 ± 0.02 %ID/g
same,Uptake in Stomach,in vivo; 2 h,0.53 ± 0.09 %ID/g

# — publication PMC6733935, “A convenient and efficient total solid-phase synthesis of DOTA-functionalized tumor-targeting peptides for PET imaging of cancer” (EJNMMI Research, 2019)
